These results are taken from publication PMC8121154, “The effects of pH and NaCl concentration on the structure of β‐casein from buffalo milk” (Food Science & Nutrition, 2021).

This data set concerns the molecule itself. Put plainly: dynamic light scattering; purified β‐CN in 10 mM sodium phosphate buffer at pH 5.5 and pH 5.0, room temperature; aggregates, micelles of 100 nm at pH 5.0.

B1: native β‐casein purified from buffalo milk (natural protein, buffalo (purified from buffalo milk), UniProt Q9TSI0 16-224, looked up)
chain: RELEELNVPGEIVESLSSSEESITHINKKIEKFQSEEQQQMEDELQDKIHPFAQTQSLVYPFPGPIPKSLPQNIPPLTQTPVVVPPFLQPEIMGVSKVKEAMAPKHKEMPFPKYPVEPFTESQSLTLTDVENLHLPLPLLQSWMHQPPQPLPPTVMFPPQSVLSLSQSKVLPVPQKAVPYPQRDMPIQAFLLYQEPVLGPVRGPFPIIV
notes: β‐casein of buffalo milk (water buffalo), native protein purified from milk; single band of approximately 25 kDa on SDS-PAGE; Native milk protein; also called β‐CN; buffalo β‐CN
With B1, the binding result is on record as “binds”.
